# In US9029508 (dated 2015):
# B1: DVD486 DLL4 arm (antibody)
# chain 1: EVQLVESGGGLVQPGGSLRLSCAASGFTFTDNWISWVRQAPGKGLEWVGYISPNSGFTYYADSVKGRFTISADTSKNTAYLQMNSLRAEDTAVYYCARDNFGGYFDYWGQGTLVTVSS
# chain 2: DIQMTQSPSSLSASVGDRVTITCRASQDVSTAVAWYQQKPGKAPKLLIYSASFLYSGVPSRFSGSGSGTDFTLTISSLQPEDFATTYYCQQSYTGTVTFGQGTKVEIKR
# modifications: DVD-Ig inner
# B2: DVD468 DLL4 arm (antibody)
# chain 1: B1 chain 1
# chain 2: B1 chain 2
# modifications: DVD-Ig inner
# B3: DVD477 DLL4 arm (antibody)
# chain 1: B1 chain 1
# chain 2: B1 chain 2
# modifications: DVD-Ig outer
# B4: DVD470 DLL4 arm (antibody)
# chain 1: B1 chain 1
# chain 2: B1 chain 2
# modifications: DVD-Ig inner
# B5: DVD484 DLL4 arm (antibody)
# chain 1: B1 chain 1
# chain 2: B1 chain 2
# modifications: DVD-Ig inner
# B6: DVD467 DLL4 arm (antibody)
# chain 1: B1 chain 1
# chain 2: B1 chain 2
# modifications: DVD-Ig outer
# B7: DVD485 DLL4 arm (antibody)
# chain 1: B1 chain 1
# chain 2: B1 chain 2
# modifications: DVD-Ig outer
# B8: DVD497 DLL4 arm (antibody, V domains shown)
# VH: EVQLQQSGPELVKPGASVKMSCKASGYTFTSYVINWVKQKPGQGLEWIGLINPYNDGTKYNEKFKVKATLTSDKSSSTAYMELSSLTSEDSAVYYCASYYYGSRYYFDYWGQGTTLTVSS
# VL: DIQMTQSSSYLSVSLGGRVTITCKASDHINNWLAWYQQKPGNAPRLLISGATSLETGVPSRFSGSGSGKDYTLSITSLQTEDVATYYCQQYWSIPLTFGAGTKLELKR
# modifications: DVD-Ig outer
# B9: DVD487 DLL4 arm (antibody, V domains shown)
# VH: B8 VH
# VL: B8 VL
# modifications: DVD-Ig outer
# B10: DVD489 DLL4 arm (antibody, V domains shown)
# VH: B8 VH
# VL: B8 VL
# modifications: DVD-Ig outer
# B11: DVD509 DLL4 arm (antibody, V domains shown)
# VH: B8 VH
# VL: B8 VL
# modifications: DVD-Ig outer
# B12: DVD519 DLL4 arm (antibody, V domains shown)
# VH: EVQLQQSGPELEKPGASVKISCKASGYSFTGYNMNWVKQSNGKSLEWIGNIDPYFGGTNYNQKFKGKATLTVDKSSSTAYMQLKSLTSEDSAVYYCARNYDYDGGCFDYWGQGTTLTVSS
# VL: QAVVTQESALTTSPGETVTLTCRSSTGAVTTSNYANWVQEKPDHLFTGLIGGTNNRAPGVPARFSGSLIGDKAALTITGAQTEDEAIYFCALWYSNHWVFGGGTKLTVLG
# modifications: DVD-Ig outer
# B13: DVD529 DLL4 arm (antibody, V domains shown)
# VH: B12 VH
# VL: B12 VL
# modifications: DVD-Ig outer
# B14: DVD515 DLL4 arm (antibody, V domains shown)
# VH: B12 VH
# VL: B12 VL
# modifications: DVD-Ig outer
# B15: DVD512 DLL4 arm (antibody, V domains shown)
# VH: B12 VH
# VL: B12 VL
# modifications: DVD-Ig inner
# B16: DVD521 DLL4 arm (antibody, V domains shown)
# VH: B12 VH
# VL: B12 VL
# modifications: DVD-Ig outer
# B17: DVD458 DLL4 arm (antibody, V domains shown)
# VH: QVQLVQSGAEVKKPGASVKISCKASGYSFTAYYIHWVKQAPGQGLEWIGYISSYNGATNYNQKFKGRVTFTTDTSTSTAYMELRSLRSDDTAVYYCARDYDYDVGMDYWGQGTLVTVSS
# VL: DIVMTQSPDSLAVSLGERATISCRASESVDNYGISFMKWFQQKPGQPPKLLIYAASNQGSGVPDRFSGSGSGTDFTLTISSLQAEDVAVYYCQQSKEVPWTFGGGTKVEIKR
# modifications: DVD-Ig inner
# B18: DVD449 DLL4 arm (antibody, V domains shown)
# VH: B17 VH
# VL: B17 VL
# modifications: DVD-Ig outer
# B19: DVD445 DLL4 arm (antibody, V domains shown)
# VH: B17 VH
# VL: B17 VL
# modifications: DVD-Ig outer
# B20: DVD464 DLL4 arm (antibody, V domains shown)
# VH: B17 VH
# VL: B17 VL
# modifications: DVD-Ig inner
# B21: DVD461 DLL4 arm (antibody, V domains shown)
# VH: B17 VH
# VL: B17 VL
# modifications: DVD-Ig outer
# B22: DVD460 DLL4 arm (antibody, V domains shown)
# VH: B17 VH
# VL: B17 VL
# modifications: DVD-Ig inner
# B23: DVD452 DLL4 arm (antibody, V domains shown)
# VH: B17 VH
# VL: B17 VL
# modifications: DVD-Ig inner
# Biological target: DLL4 (human, UniProt Q9NR61)
# Assay: ELISA
# DLL4, sequence (Q9NR61 27-524): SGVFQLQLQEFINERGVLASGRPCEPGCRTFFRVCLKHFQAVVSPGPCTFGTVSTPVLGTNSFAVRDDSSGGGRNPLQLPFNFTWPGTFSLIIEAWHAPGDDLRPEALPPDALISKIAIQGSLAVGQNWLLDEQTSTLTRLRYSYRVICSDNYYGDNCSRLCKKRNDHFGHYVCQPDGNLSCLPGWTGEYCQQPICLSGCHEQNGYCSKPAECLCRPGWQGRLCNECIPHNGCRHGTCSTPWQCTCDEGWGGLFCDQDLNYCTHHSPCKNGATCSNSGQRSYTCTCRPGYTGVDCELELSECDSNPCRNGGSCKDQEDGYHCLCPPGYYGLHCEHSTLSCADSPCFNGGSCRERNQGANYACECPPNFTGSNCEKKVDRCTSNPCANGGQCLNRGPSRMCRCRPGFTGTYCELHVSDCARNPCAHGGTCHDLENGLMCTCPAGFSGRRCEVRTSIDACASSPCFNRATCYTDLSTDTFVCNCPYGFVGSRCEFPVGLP
row,EC50,Binder
1,0.59 nM,B1
2,2.28 nM,B2
3,0.69 nM,B3
4,0.19 nM,B4
5,1.75 nM,B5
6,0.54 nM,B6
7,1.41 nM,B7
8,0.53 nM,B8
9,0.14 nM,B9
10,0.62 nM,B10
11,0.21 nM,B11
12,1.53 nM,B12
13,0.1 nM,B13
14,0.2 nM,B14
15,1.71 nM,B15
16,0.26 nM,B16
17,1.54 nM,B17
18,0.36 nM,B18
19,0.17 nM,B19
20,0.8 nM,B20
21,0.52 nM,B21
22,0.64 nM,B22
23,0.34 nM,B23
